Patent US20250340643A1

What was measured:
[1] = biological target: CTLA4 on the cells of the reporter gene bioassay (human) (UniProt P16410); assay: cell-based or functional assay
[2] = biological target: recombinant FcRn (UniProt P55899); assay: SPR, recombinant FcRn immobilized on the sensor; relative to Reference Standard
[3] = biological target: CTLA-4 (as used in the CTLA-4 binding assay) (human) (UniProt P16410); assay: CTLA-4 binding relative to tremelimumab Reference Standard; method not named for this table (competitive ELISA or SPR per the methods)
Chain of CTLA-4 (as used in the CTLA-4 binding assay) (human) (P16410 36-161 limits assumed): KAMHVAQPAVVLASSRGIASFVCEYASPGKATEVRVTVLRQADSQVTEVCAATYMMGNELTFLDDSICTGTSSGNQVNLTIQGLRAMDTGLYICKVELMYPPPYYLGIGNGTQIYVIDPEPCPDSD

Chain of CTLA4 on the cells of the reporter gene bioassay (human) (P16410 36-223): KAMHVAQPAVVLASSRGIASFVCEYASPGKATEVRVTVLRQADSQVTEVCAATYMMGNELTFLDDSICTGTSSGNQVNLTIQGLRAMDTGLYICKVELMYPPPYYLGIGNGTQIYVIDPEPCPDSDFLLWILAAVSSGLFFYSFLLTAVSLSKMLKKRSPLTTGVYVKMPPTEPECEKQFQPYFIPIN

Rel. Potency (%) (reporter gene bioassay) [1]: 78% | Rel. FcRn Binding (%) [2]: 95% | Rel. CTLA-4 Binding (%) [3]: 62%
Substance: Tremelimumab IEC Fraction D (acidic peak 1), after pH 9 for 7 days (antibody)
